Measurements as given in paper PMC11300964, “Chaperone BiP controls ER stress sensor Ire1 through interactions with its oligomers” (Life Science Alliance, 2024).
Values joined by “and” are separate entries in the source; they are usually repeats but may differ in a detail not shown here. Identical values can stand only once.

What was measured:
[1] = target: the molecule itself; test: native MS; 5 μM Ire1-LD sprayed from 100 mM ammonium acetate at pH 6.8; no substrate peptide
[2] = target: the molecule itself; test: MST; 0.5 μM FITC-labelled Ire1-LD titrated with unlabelled Ire1-LD; HMK buffer with 1 mM TCEP or 5 mM DTT; apparent dimerization constant (dimer to monomers); no substrate peptide
turbidity (OD at 400 nm) = target: the molecule itself; test: turbidity (OD at 400 nm)
co-sedimentation = target: the molecule itself; test: co-sedimentation

B1: human Ire1α luminal domain (aa 24–449), wild type (domain or fragment, UniProt O75460 24-449, looked up)
chain: STVTLPETLLFVSTLDGSLHAVSKRTGSIKWTLKEDPVLQVPTHVEEPAFLPDPNDGSLYTLGSKNNEGLTKLPFTIPELVQASPCRSSDGILYMGKKQDIWYVIDLLTGEKQQTLSSAFADSLCPSTSLLYLGRTEYTITMYDTKTRELRWNATYFDYAASLPEDDVDYKMSHFVSNGDGLVVTVDSESGDVLWIQNYASPVVAFYVWQREGLRKVMHINVAVETLRYLTFMSGEVGRITKWKYPFPKETEAKSKLTPTLYVGKYSTSLYASPSMVHEGVAVVPRGSTLPLLEGPQTDGVTIGDKGECVITPSTDVKFDPGLKSKNKLNYLRNYWLLIGHHETPLSASTKMLERFPNNLPKHRENVIPADSEKKSFEEVINLVDQTSENAPTTVSRDVEEKPAHAPARPEAPVDSMLKDMATIIL
modifications: FITC-labelled for the copy held at fixed concentration in MST and for fluorescence polarisation; unlabelled elsewhere
notes: human Ire1α luminal domain (Ire1-LD), aa 24-449 of UniProt O75460; Cloned into the pET His6 TEV LIC vector (Addgene 29653); 15N- or 13C,15N-labelled for NMR; also called Ire1-LD; WT Ire1-LD; source: E. coli BL21 (DE3), purified (HisTrap HP nickel column, dialysis)
Which results are given for B1?
stoichiometry N [1]: 2 and 4; Kd [2]: 500 ± 170 nM

B2: human Ire1α luminal domain (aa 24–449), 359WLLI362 to GSSG variant (domain or fragment, UniProt O75460 24-449, looked up)
chain: STVTLPETLLFVSTLDGSLHAVSKRTGSIKWTLKEDPVLQVPTHVEEPAFLPDPNDGSLYTLGSKNNEGLTKLPFTIPELVQASPCRSSDGILYMGKKQDIWYVIDLLTGEKQQTLSSAFADSLCPSTSLLYLGRTEYTITMYDTKTRELRWNATYFDYAASLPEDDVDYKMSHFVSNGDGLVVTVDSESGDVLWIQNYASPVVAFYVWQREGLRKVMHINVAVETLRYLTFMSGEVGRITKWKYPFPKETEAKSKLTPTLYVGKYSTSLYASPSMVHEGVAVVPRGSTLPLLEGPQTDGVTIGDKGECVITPSTDVKFDPGLKSKNKLNYLRNYGSSGGHHETPLSASTKMLERFPNNLPKHRENVIPADSEKKSFEEVINLVDQTSENAPTTVSRDVEEKPAHAPARPEAPVDSMLKDMATIIL
notes: human Ire1α luminal domain (Ire1-LD), aa 24-449 of UniProt O75460, with WLLI 359-362 replaced by GSSG at the oligomerisation interface; Methods and one legend print 358WLLI362; also called 358WLLI362 to GSSG; source: E. coli BL21 (DE3), expressed overnight at 20°C, purified (HisTrap HP nickel column)
Does B2 bind (turbidity (OD at 400 nm))?
Result: binds

B3: human Ire1α luminal domain (aa 24–449), 315LL316 to DA variant (domain or fragment, UniProt O75460 24-449, looked up)
chain: STVTLPETLLFVSTLDGSLHAVSKRTGSIKWTLKEDPVLQVPTHVEEPAFLPDPNDGSLYTLGSKNNEGLTKLPFTIPELVQASPCRSSDGILYMGKKQDIWYVIDLLTGEKQQTLSSAFADSLCPSTSLLYLGRTEYTITMYDTKTRELRWNATYFDYAASLPEDDVDYKMSHFVSNGDGLVVTVDSESGDVLWIQNYASPVVAFYVWQREGLRKVMHINVAVETLRYLTFMSGEVGRITKWKYPFPKETEAKSKLTPTLYVGKYSTSLYASPSMVHEGVAVVPRGSTLPDAEGPQTDGVTIGDKGECVITPSTDVKFDPGLKSKNKLNYLRNYWLLIGHHETPLSASTKMLERFPNNLPKHRENVIPADSEKKSFEEVINLVDQTSENAPTTVSRDVEEKPAHAPARPEAPVDSMLKDMATIIL
notes: human Ire1α luminal domain (Ire1-LD), aa 24-449 of UniProt O75460, with LL 315-316 replaced by DA; source: E. coli BL21 (DE3), purified (HisTrap HP nickel column)
Does B3 bind (co-sedimentation)?
Result: binds
